These are literature values, as cited in patent US6444791B1, “Methods and compositions for the treatment of keratoconus using protease inhibitors” (K-Quay Enterprises, LLC, priority 1999, dated 2002).

Read-outs that look alike come from different tables or passages of the source. Non-standard residues stand in square brackets, D forms with d. Residues, ends and D or L forms follow the SMILES beside them. No end group written: not given here. *: point of attachment. Sta = CC(C)C[C@H](N)[C@@H](O)CC(=O)O; Isovaleryl = CC(C)CC(=O)*

In data set [1] the target is T1, gelatinase, type IV collagenase (Homo sapiens, UniProt P08253).
T1 construct: host or cells: keratoconus keratocyte culture media (endogenous, secreted)
T1 sequence (P08253 110-660): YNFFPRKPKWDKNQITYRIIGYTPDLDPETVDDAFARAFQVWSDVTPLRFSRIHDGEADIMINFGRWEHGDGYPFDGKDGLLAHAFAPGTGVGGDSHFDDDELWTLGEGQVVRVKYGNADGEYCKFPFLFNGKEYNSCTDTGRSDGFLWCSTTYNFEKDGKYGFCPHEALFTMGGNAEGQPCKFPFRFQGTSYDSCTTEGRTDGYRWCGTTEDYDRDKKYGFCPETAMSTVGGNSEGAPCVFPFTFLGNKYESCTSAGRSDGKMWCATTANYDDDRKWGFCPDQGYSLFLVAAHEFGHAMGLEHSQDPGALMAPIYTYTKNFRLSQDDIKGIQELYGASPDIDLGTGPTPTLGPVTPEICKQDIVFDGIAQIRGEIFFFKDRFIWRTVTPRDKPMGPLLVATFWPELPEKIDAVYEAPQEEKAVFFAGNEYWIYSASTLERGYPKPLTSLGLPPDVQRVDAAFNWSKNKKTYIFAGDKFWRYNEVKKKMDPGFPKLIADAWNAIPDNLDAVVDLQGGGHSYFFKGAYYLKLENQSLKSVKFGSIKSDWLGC
The conditions noted are these: keratoconus keratocyte culture media.

Data set [2] deals with gelatinolytic and caseinolytic activities. The conditions noted are these: in situ zymography, healthy control and keratoconic specimens.
The target of a further data set is T2, proteinase-3 (Homo sapiens, UniProt P24158).
T2 sequence (P24158 28-248): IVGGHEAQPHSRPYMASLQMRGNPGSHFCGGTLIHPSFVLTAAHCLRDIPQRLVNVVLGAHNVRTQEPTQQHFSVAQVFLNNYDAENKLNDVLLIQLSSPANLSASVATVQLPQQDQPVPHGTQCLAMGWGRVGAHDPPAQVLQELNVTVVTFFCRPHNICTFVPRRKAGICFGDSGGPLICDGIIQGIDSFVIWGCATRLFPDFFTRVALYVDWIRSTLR

The target of data set [3] is T3, elastase (Homo sapiens, UniProt P08246).
T3 sequence (P08246 30-267): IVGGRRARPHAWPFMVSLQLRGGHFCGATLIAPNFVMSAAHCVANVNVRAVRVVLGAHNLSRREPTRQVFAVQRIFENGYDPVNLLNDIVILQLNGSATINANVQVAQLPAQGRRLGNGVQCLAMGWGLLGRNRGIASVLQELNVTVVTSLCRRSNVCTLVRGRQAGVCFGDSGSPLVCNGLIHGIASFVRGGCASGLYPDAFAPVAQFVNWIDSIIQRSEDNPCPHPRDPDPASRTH
The conditions noted are these: R-type tear fluid; from calculated molar ratios of serpins.

A further data set has as its target T4, cathepsin G (Homo sapiens, UniProt P08311).
T4 sequence (P08311 21-244): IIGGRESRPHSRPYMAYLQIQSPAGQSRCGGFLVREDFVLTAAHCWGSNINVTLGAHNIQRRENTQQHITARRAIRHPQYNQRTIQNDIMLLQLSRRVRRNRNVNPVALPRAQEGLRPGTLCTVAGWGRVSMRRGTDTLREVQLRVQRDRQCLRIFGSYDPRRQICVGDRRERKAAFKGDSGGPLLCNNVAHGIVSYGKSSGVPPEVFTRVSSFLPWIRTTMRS

For data set [4], the target named is T3, elastase.
The subject of another data set is HIV virus. The conditions noted are these: cell culture.

On to `O[C@H](CS)[C@H](O)CS` (racemic) [dithiothreitol], for which the “effect on gelatinolytic activity” value in data set [1] is reported as “inactivated”.
As to `c1cnc2c(c1)ccc1cccnc12` [1, 10-phenanthroline], the “effect on digestion of gelatin and casein” value (from here on “effect on digestion”) in data set [2] is reported as “failed to block”.
Consider `OCCS` [B-mercaptoethanol], for which the “effect on gelatinolytic activity” value in data set [1] is listed as “inactivated”.
Regarding `CC(C)C[C@H](NC(=O)[C@H]1O[C@@H]1C(=O)O)C(=O)NCCCCN=C(N)N` [E-64], the “effect on digestion” value in data set [2] is on record as “substantially reduced”.
As for `CC(=O)N[C@@H](CC(C)C)C(=O)N[C@@H](CC(C)C)C(=O)N[C@H](C=O)CCCNC(=N)N` [leupeptin], in data set [2], the “effect on digestion” value was “substantially reduced”.
On to `CC(C)CC(=O)N[C@H](C(=O)N[C@H](C(=O)N[C@@H](CC(C)C)[C@@H](O)CC(=O)N[C@@H](C)C(=O)N[C@@H](CC(C)C)[C@@H](O)CC(=O)O)C(C)C)C(C)C` [pepstatin] (Isovaleryl-VV[Sta]A[Sta]-OH), for which the “effect on digestion” value in [2] is “failed to block”.
Turning to `O=S(=O)(F)Cc1ccccc1` [phenylmethyl sulfonyl fluoride], in data set [2], the “effect on digestion” value is “substantially reduced”. Also, the “effect on gelatinolytic activity” value in [1] (lmM) was “not effected”.
With “alp1: α-1 protease inhibitor, a major protease inhibitor in human plasma, glycoprotein of 53 kDa”, in the data set with proteinase-3, the “inhibition of proteinase-3” value is given as “potent inhibitors”.
For the molecule “elafin: protease inhibitor (6-9 kDa), potent inhibitor of proteinase-3 (AQEPVKGPVSTKPGSCPIILIRCAMLNPPNRCLKDTDCPGIKKCCEGSCGMACFVPQ; ends and bridges not checked; cysteine pairing not given here; UniProt P19957 61-117, looked up)”, in the data set with proteinase-3, the “inhibition of proteinase-3” value is given as “potent inhibitors”.

B1: α2-M: α2-macroglobulin, high-molecular-weight (718 kD) homotetrameric glycoprotein protease inhibitor (protein, UniProt P01023 24-1474, looked up)
Alpha-2-macroglobulin: SVSGKPQYMVLVPSLLHTETTEKGCVLLSYLNETVTVSASLESVRGNRSLFTDLEAENDVLHCVAFAVPKSSSNEEVMFLTVQVKGPTQEFKKRTTVMVKNEDSLVFVQTDKSIYKPGQTVKFRVVSMDENFHPLNELIPLVYIQDPKGNRIAQWQSFQLEGGLKQFSFPLSSEPFQGSYKVVVQKKSGGRTEHPFTVEEFVLPKFEVQVTVPKIITILEEEMNVSVCGLYTYGKPVPGHVTVSICRKYSDASDCHGEDSQAFCEKFSGQLNSHGCFYQQVKTKVFQLKRKEYEMKLHTEAQIQEEGTVVELTGRQSSEITRTITKLSFVKVDSHFRQGIPFFGQVRLVDGKGVPIPNKVIFIRGNEANYYSNATTDEHGLVQFSINTTNVMGTSLTVRVNYKDRSPCYGYQWVSEEHEEAHHTAYLVFSPSKSFVHLEPMSHELPCGHTQTVQAHYILNGGTLLGLKKLSFYYLIMAKGGIVRTGTHGLLVKQEDMKGHFSISIPVKSDIAPVARLLIYAVLPTGDVIGDSAKYDVENCLANKVDLSFSPSQSLPASHAHLRVTAAPQSVCALRAVDQSVLLMKPDAELSASSVYNLLPEKDLTGFPGPLNDQDNEDCINRHNVYINGITYTPVSSTNEKDMYSFLEDMGLKAFTNSKIRKPKMCPQLQQYEMHGPEGLRVGFYESDVMGRGHARLVHVEEPHTETVRKYFPETWIWDLVVVNSAGVAEVGVTVPDTITEWKAGAFCLSEDAGLGISSTASLRAFQPFFVELTMPYSVIRGEAFTLKATVLNYLPKCIRVSVQLEASPAFLAVPVEKEQAPHCICANGRQTVSWAVTPKSLGNVNFTVSAEALESQELCGTEVPSVPEHGRKDTVIKPLLVEPEGLEKETTFNSLLCPSGGEVSEELSLKLPPNVVEESARASVSVLGDILGSAMQNTQNLLQMPYGCGEQNMVLFAPNIYVLDYLNETQQLTPEIKSKAIGYLNTGYQRQLNYKHYDGSYSTFGERYGRNQGNTWLTAFVLKTFAQARAYIFIDEAHITQALIWLSQRQKDNGCFRSSGSLLNNAIKGGVEDEVTLSAYITIALLEIPLTVTHPVVRNALFCLESAWKTAQEGDHGSHVYTKALLAYAFALAGNQDKRKEVLKSLNEEAVKKDNSVHWERPQKPKAPVGHFYEPQAPSAEVEMTSYVLLAYLTAQPAPTSEDLTSATNIVKWITKQQNAQGGFSSTQDTVVALHALSKYGAATFTRTGKAAQVTIQSSGTFSSKFQVDNNNRLLLQQVSLPELPGEYSMKVTGEGCVYLQTSLKYNILPEKEEFPFALGVQTLPQTCDEPKAHTSFQISLSVSYTGSRSASNMAIVDVKMVSGFIPLKPTVKMLERSNHVSRTEVSSNHVLIYLDKVSNQTLSLFFTVLQDVPVRDLKPAIVKVYDYYETDEFAIAEYNAPCSKDLGNA
Regarding B1, in the data set on PMN cell proteases, the “rate of reaction with PMN cell proteases” value is listed as “relatively slow rate”.

B2: SLPI: secretory leucocyte protease inhibitor, an 11.7 kDa elastase and cathepsin G specific inhibitor (protein, UniProt P03973 26-132, looked up)
Antileukoproteinase: SGKSFKAGVCPPKKSAQCLRYKKPECQSDWQCPGKKRCCPDTCGIKCLDPVDTPNPTRRKPGKCPVTYGQCLMLNPPNFCEMDGQCKRDLKCCMGMCGKSCVSPVKA
As to B2, in the data set with proteinase-3, the “inhibition of proteinase-3” value is recorded as “no capacity to inhibit”. Further, the “share of the total elastase inhibitory activity” value in the data set with elastase [3] is on record as at least 95%. Moreover, the “cytotoxicity to E. coli” value in the data set on E. coli was “cytotoxic”. Further, the “inhibition of cathepsin G” value in the data set with cathepsin G is “potent inhibitor”. For the same molecule, the inhibition of elastase entry in the data set with elastase [4] is “potent inhibitor”. For the same molecule, the “cytotoxicity to Staphylococcus aureus” value in the data set with Staphylococcus aureus is “cytotoxic”. In the data set on HIV virus, the “effect on transmission and replication of HIV virus” value is “inhibits”.
